Columns and labels:
[1] = target: fetal muscle nicotinic acetylcholine receptor (α1β1γδ), mouse (mouse) (UniProt P04756)
[2] = target: adult muscle nicotinic acetylcholine receptor (α1β1εδ), mouse (mouse) (UniProt P04756)
[3] = target: fetal muscle nicotinic acetylcholine receptor (α1β1γδ), mouse (mouse) (UniProt P04756); remark: listed apart in the source

Fraction 4 of the tentacle venom extract (TVE) of the jellyfish Aurelia aurita
percent block of ACh-elicited currents at 1.5, 3 and 4.5 μg total protein of fraction 4 (25%, 50%, 96%), voltage clamp on X. laevis oocytes [1]: 96%
IC50 of inhibition of ACh-elicited currents, two-electrode voltage clamp on X. laevis oocytes expressing the receptor [2]: 2280 µg/mL
IC50 of inhibition of ACh-elicited currents, two-electrode voltage clamp on X. laevis oocytes expressing the receptor [3]: 1770 µg/mL
